Data reported in the Human Domainome abundance scans (Beltran et al. 2025).
± gives the uncertainty stated by the source.

B1: Triacylglycerol hydrolase DDHD2, residues 389 to 447; numbered along this chain, O94830 (parent)
chain: TLEEDLKKLQLSEFFDIFEKEKVDKEALALCTDRDLQEIGIPLGPRKKILNYFSTRKNS

Variants of: B1
Test: abundance fitness (aPCA) (normalised: wild type 0, dead -1); higher = more abundant; growth selection in yeast, the domain comes from the species named
Details: Homo sapiens

In order of rising abundance fitness:
1. PLEEDLKKLQLSEFFDIFEKEKVDKEALALCTDRDLQEIGIPLGPRKKILNYFSTRKNS [T1P]  -0.999 ± 0.42
2. THEEDLKKLQLSEFFDIFEKEKVDKEALALCTDRDLQEIGIPLGPRKKILNYFSTRKNS [L2H]  -0.818 ± 0.17
3. TLPEDLKKLQLSEFFDIFEKEKVDKEALALCTDRDLQEIGIPLGPRKKILNYFSTRKNS [E3P]  -0.817 ± 0.088
4. TPEEDLKKLQLSEFFDIFEKEKVDKEALALCTDRDLQEIGIPLGPRKKILNYFSTRKNS [L2P]  -0.748 ± 0.092
5. TLCEDLKKLQLSEFFDIFEKEKVDKEALALCTDRDLQEIGIPLGPRKKILNYFSTRKNS [E3C]  -0.748 ± 0.1
6. TLTEDLKKLQLSEFFDIFEKEKVDKEALALCTDRDLQEIGIPLGPRKKILNYFSTRKNS [E3T]  -0.705 ± 0.089
7. TYEEDLKKLQLSEFFDIFEKEKVDKEALALCTDRDLQEIGIPLGPRKKILNYFSTRKNS [L2Y]  -0.695 ± 0.13
8. TQEEDLKKLQLSEFFDIFEKEKVDKEALALCTDRDLQEIGIPLGPRKKILNYFSTRKNS [L2Q]  -0.65 ± 0.12
9. TCEEDLKKLQLSEFFDIFEKEKVDKEALALCTDRDLQEIGIPLGPRKKILNYFSTRKNS [L2C]  -0.621 ± 0.089
10. TAEEDLKKLQLSEFFDIFEKEKVDKEALALCTDRDLQEIGIPLGPRKKILNYFSTRKNS [L2A]  -0.609 ± 0.07
11. TGEEDLKKLQLSEFFDIFEKEKVDKEALALCTDRDLQEIGIPLGPRKKILNYFSTRKNS [L2G]  -0.607 ± 0.071
12. TLGEDLKKLQLSEFFDIFEKEKVDKEALALCTDRDLQEIGIPLGPRKKILNYFSTRKNS [E3G]  -0.591 ± 0.057
13. ILEEDLKKLQLSEFFDIFEKEKVDKEALALCTDRDLQEIGIPLGPRKKILNYFSTRKNS [T1I]  -0.572 ± 0.21
14. TWEEDLKKLQLSEFFDIFEKEKVDKEALALCTDRDLQEIGIPLGPRKKILNYFSTRKNS [L2W]  -0.52 ± 0.082
15. QLEEDLKKLQLSEFFDIFEKEKVDKEALALCTDRDLQEIGIPLGPRKKILNYFSTRKNS [T1Q]  -0.506 ± 0.28
16. LLEEDLKKLQLSEFFDIFEKEKVDKEALALCTDRDLQEIGIPLGPRKKILNYFSTRKNS [T1L]  -0.488 ± 0.18
17. MLEEDLKKLQLSEFFDIFEKEKVDKEALALCTDRDLQEIGIPLGPRKKILNYFSTRKNS [T1M]  -0.475 ± 0.21
18. TDEEDLKKLQLSEFFDIFEKEKVDKEALALCTDRDLQEIGIPLGPRKKILNYFSTRKNS [L2D]  -0.468 ± 0.13
19. TLVEDLKKLQLSEFFDIFEKEKVDKEALALCTDRDLQEIGIPLGPRKKILNYFSTRKNS [E3V]  -0.454 ± 0.064
20. VLEEDLKKLQLSEFFDIFEKEKVDKEALALCTDRDLQEIGIPLGPRKKILNYFSTRKNS [T1V]  -0.44 ± 0.15
21. TKEEDLKKLQLSEFFDIFEKEKVDKEALALCTDRDLQEIGIPLGPRKKILNYFSTRKNS [L2K]  -0.426 ± 0.11
22. KLEEDLKKLQLSEFFDIFEKEKVDKEALALCTDRDLQEIGIPLGPRKKILNYFSTRKNS [T1K]  -0.425 ± 0.24
23. TLHEDLKKLQLSEFFDIFEKEKVDKEALALCTDRDLQEIGIPLGPRKKILNYFSTRKNS [E3H]  -0.358 ± 0.11
24. TLNEDLKKLQLSEFFDIFEKEKVDKEALALCTDRDLQEIGIPLGPRKKILNYFSTRKNS [E3N]  -0.354 ± 0.12
25. RLEEDLKKLQLSEFFDIFEKEKVDKEALALCTDRDLQEIGIPLGPRKKILNYFSTRKNS [T1R]  -0.331 ± 0.16
26. TLIEDLKKLQLSEFFDIFEKEKVDKEALALCTDRDLQEIGIPLGPRKKILNYFSTRKNS [E3I]  -0.325 ± 0.14
27. TFEEDLKKLQLSEFFDIFEKEKVDKEALALCTDRDLQEIGIPLGPRKKILNYFSTRKNS [L2F]  -0.269 ± 0.091
28. TLQEDLKKLQLSEFFDIFEKEKVDKEALALCTDRDLQEIGIPLGPRKKILNYFSTRKNS [E3Q]  -0.251 ± 0.078
29. TLREDLKKLQLSEFFDIFEKEKVDKEALALCTDRDLQEIGIPLGPRKKILNYFSTRKNS [E3R]  -0.239 ± 0.049
30. SLEEDLKKLQLSEFFDIFEKEKVDKEALALCTDRDLQEIGIPLGPRKKILNYFSTRKNS [T1S]  -0.232 ± 0.12
31. TLFEDLKKLQLSEFFDIFEKEKVDKEALALCTDRDLQEIGIPLGPRKKILNYFSTRKNS [E3F]  -0.209 ± 0.1
32. TEEEDLKKLQLSEFFDIFEKEKVDKEALALCTDRDLQEIGIPLGPRKKILNYFSTRKNS [L2E]  -0.2 ± 0.086
33. TLYEDLKKLQLSEFFDIFEKEKVDKEALALCTDRDLQEIGIPLGPRKKILNYFSTRKNS [E3Y]  -0.162 ± 0.1
34. TLWEDLKKLQLSEFFDIFEKEKVDKEALALCTDRDLQEIGIPLGPRKKILNYFSTRKNS [E3W]  -0.16 ± 0.059
35. TLLEDLKKLQLSEFFDIFEKEKVDKEALALCTDRDLQEIGIPLGPRKKILNYFSTRKNS [E3L]  -0.145 ± 0.058
36. TLAEDLKKLQLSEFFDIFEKEKVDKEALALCTDRDLQEIGIPLGPRKKILNYFSTRKNS [E3A]  -0.142 ± 0.063
37. ELEEDLKKLQLSEFFDIFEKEKVDKEALALCTDRDLQEIGIPLGPRKKILNYFSTRKNS [T1E]  -0.042 ± 0.17
38. TIEEDLKKLQLSEFFDIFEKEKVDKEALALCTDRDLQEIGIPLGPRKKILNYFSTRKNS [L2I]  -0.017 ± 0.094
39. TLMEDLKKLQLSEFFDIFEKEKVDKEALALCTDRDLQEIGIPLGPRKKILNYFSTRKNS [E3M]  -0.002 ± 0.089
40. DLEEDLKKLQLSEFFDIFEKEKVDKEALALCTDRDLQEIGIPLGPRKKILNYFSTRKNS [T1D]  0.014 ± 0.3
41. TMEEDLKKLQLSEFFDIFEKEKVDKEALALCTDRDLQEIGIPLGPRKKILNYFSTRKNS [L2M]  0.041 ± 0.085
42. TLKEDLKKLQLSEFFDIFEKEKVDKEALALCTDRDLQEIGIPLGPRKKILNYFSTRKNS [E3K]  0.101 ± 0.081
43. GLEEDLKKLQLSEFFDIFEKEKVDKEALALCTDRDLQEIGIPLGPRKKILNYFSTRKNS [T1G]  0.103 ± 0.13
44. YLEEDLKKLQLSEFFDIFEKEKVDKEALALCTDRDLQEIGIPLGPRKKILNYFSTRKNS [T1Y]  0.138 ± 0.38
45. NLEEDLKKLQLSEFFDIFEKEKVDKEALALCTDRDLQEIGIPLGPRKKILNYFSTRKNS [T1N]  0.235 ± 0.29
